Laboratory results: patent publication US20260241035A1, “FUNCTIONAL NUCLEIC ACID MOLECULE AND METHOD” (THE UNIVERSITY COURT OF THE UNIVERSITY OF EDINBURGH, priority 2022, published 2026)

B1: ID0403-2: enhancer fragment, SEQ ID NO: 33 (nucleic acid)
DNA: ATGTTAAACAGTGAAATCATCAGCAAAAAGCACAAAACTGCAGAAAACATGGCACTAAATAGAACACAAAAAGGACACTTGTTTACAGTATGAGAGCAGAAACAAGGAAACAGTGTTTCCTTGTTCAGCCACAGCTGGGACCTTGTGTGT
B2: ID0403-1: enhancer fragment, SEQ ID NO: 32 (nucleic acid)
DNA: TGCCTCTCTTCCATTGGCATTGGAGTGGCTATAGGCCTTTGGAGGACCTGGCAAAGGGGAAGTTGATTTAGGGGTTCATTGAATTGAGGGGAAGTATGTAAGTGGTTTGCAGTCACTTCCTTGTGTGGTACTCTTGTATAGTAATGATTTCCTGGAATA
B3: CSE222: clustered SOX dimer motif enhancer, SEQ ID NO: 39 (nucleic acid)
DNA: CTCTTTGGGTCTAGGTATCATTTTGGGATCACATCATGATAACTCTATGTGTGTGTGCTGGGAGGGCAAAGTTGCAAAGCAATTACTCAGCAATGCTGAAGAAAGAAGCAATTACTGGAACACATTTTAGCCCCGCTTGTCAGAGTGACTTTCACTGGGGCACAAGGGAAGCATTCACTTAGGCAGTATCCCTTTCAGAGGCTTAATTTAGTTTTTTCTTCCCTTTAATTGTGTGATTCCAGTATTTTAGCTACAATCCCTAGGCTGTAGGAACCTTTAAACACTTCTTTTTATAAAAGAAATGCATGGGCTTTTGAAGAATAAACAGGGGGCTGCATAATTTATAGGAAAATGGCACCATGGACTTTTCCTTCACAAAGAACATTGGGGTTACATTGGAACAAGCCAAATATGTTTTTAATGAATAGTCAGTAATCAGCAGCAGCTACAGTAAGTGCTTGAAATTTTTCTTTTATGTGCTATGAGTCCACAAACTAAGCATCTGATTCTGATTGCAGCCATGA
B4: CSE208: clustered SOX dimer motif enhancer, SEQ ID NO: 38 (nucleic acid)
DNA: AGATAAAGCCAGAAATAAAAGGGAAAGAAACAGTTATATGATTTTGGTGGGAATTTGCAGAAATACAGGCTGAAGCTGAAGTCTTCCATCAGGTGAGGTTTTTTCCATTGATCTCATCTCTCGGGCTCAGCTCTTTTATCTCCAGCGCATTTTGGATGTGGCTTCTCTTTCCACCTGCTGGGCCTTTAGATAGAGTACTTCCTTTTGTTTCAAGGTAGCATTTAACTGAGTCTGGAAAAACCATCATTAAGGGAAAATAAAGCTGAAAGATGAATTGAAAACTATGTAAAAGGGCCCTTTCAGGCTGCCGGAGAGATTGCCTTTCCAGCCTAATGAGCCTGTGCTGCCTCTGATTCAGATGGTGCAAGGACAGGAGAAAAGAATGGAGTTTTGTGCACTGCGATTTTCCAAAGCACATAATGCTTAGTCATTTGGGGTGTTAGGAAAGAGAGAAAGTCGGAGCGGAGTGTGTGGTGAAGTGAGAGAAAGAAAGAAGGCTGAATTTTCGTTAAGCTGCTCAAATGCCTGCTTTAACAAAAGTCTGCCAGGGCTAGAGGTGATTAGCCATCAGTGCTGCTGCTGTTTTTGCTGTCG
B5: ID4035: enhancer fragment, SEQ ID NO: 29 (nucleic acid)
DNA: CCCAGACTGCCATCTCCACGGCCCCCACACCAGCACACAGATGCCTCATTCACGTGGTGCTCCCAGGGCCTGGCACCAGTTCTGAGGCTTAAAATAGGCACACAACGGGCCTTTGTCGGATAGAGGAAGGAAGGAAGGAGCGTTTCAGACAAAGGAGACA
B6: ID4431: enhancer fragment, SEQ ID NO: 35 (nucleic acid)
DNA: AAATGGTGATTATCATCATTTGTTCAGGGACATTAGCATGAAGGCCGAATGTTCTGGCACAAAGACACGTCTGTGGGACAGGCAC
modifications: listed as DNA, chemistry not given here
B7: ID2082: enhancer fragment, SEQ ID NO: 28 (nucleic acid)
DNA: ACAGAAGCCGTTGCTGCAGTAACCACTGCCGCAAGAGCAACTTTGGCAGCAGGCAGGTGCCAGGCAGCAAGCTGAGAGAACACTGACAGATTCAAAGTGTCTTCAGATACAAGGCTTTGTTTGTGCACAGTGAACAAAGGGCATATTGGGAAGGCCTCC
B8: ID3499: enhancer fragment, SEQ ID NO: 36 (nucleic acid)
DNA: AAGAATGAACTGGGCCCAGCTGGGCATTTGCATCAAAGTGCCTCACCAGAGTTCCCAGCTGCTCTGGCAGAGTGCCCAGGCTTGCCCCAGAGCCCAAACAGAATGCTCTTTGAGATGCCTCTGGTTTTCA
modifications: listed as DNA, chemistry not given here
B9: ID1667: enhancer fragment, SEQ ID NO: 30 (nucleic acid)
DNA: ACCCTTTGCAGAGAGGAAAGAGAAAGGAGGTCTCCTGTTGGGGAGATCTGCTTTAGAGGTTAGGAAGAATGGTGGAGTTGTAAGACATTGGAATCACTGTCTAGGAAGGACAGTGGCCTTTTATCCAGGGCTATTTAAAAACAGACAGAGCTTCATCTAT
B10: ID0109: enhancer fragment, SEQ ID NO: 6 (nucleic acid)
DNA: GAAATTGGATCCTGAGGAGAATGTCACCACCTCTTTGACAATAACTAGCTTTCAGAGCTGAACACAGTGAATCTGGATACTGTGTATATGTTTAAATGAGTTAGGAAATGACATCACATTATTTATTTCTTCTTTTGTGACTTAGTAAATTGACTTGGCC
B11: CSE194: clustered SOX dimer motif enhancer, SEQ ID NO: 37 (nucleic acid)
DNA: ATCTCATATATGTGTATATGTATTTATGATTTACATATATACAGACGTATCACACACTCCGAATAGAATACAGATTTCCTTCAATGACAGCAACAACTCAATGACCCGCCCACTAGCATGGCTAAAATACTAAACCACTAGATAGCTTTATGTGAACTTGAGCTTGATTGTTTCTTAGCTCTGCTTCAGAACCTCATGATCATGTGCATGCAATTTCTACAGAAGCGGAAACGTAGATGCTGTGGGTCAGTGAGCATTCCTTTCCAGGGTGCTTCTGAGATGAAGCCCCACGATTAACACAGGGCCCTTAATGATGGGCGGGGGACTAAGCATTCCAAGATTGGCCTGGATTCCTGCCAGAAGGGAGAGAAAGGGGTCTTTGTATGTGGACATCTGAAGGGCGGGCATAAACATGTTAGTTGATACTTAACACCCAAAACCAGTGCCAAAACCGTTAGCTCCCCTCAATAGCCTACTCTGGTTTCAACTGTCCGCGACAATGGAGCAGCCACCTCAATATACAAAACTTGCTCTTTAAACATCCTCAGAGGAATTCCCAAAATAGCAGCTGTTAGAAGCAAACAGACTCTAATTCATTGACATATGCAGACCTTTTAATGTTTTTCTGGTGACGTTTACATTTTTTTTTGTACCTACGCCATCTATGCATTTTTAATAATTACCTTGTAGATTACGTATGCAATCCCTCCAGGCACTTGAAGAAGGAGCCCCGGGATTCATCATCAGATGAAATTGTTAGTTTTTACGGCAAGAGGCCCAGCTAATTTATGCGGGGAATTTTTCAGACGTTTTTCCTCTGGGCTCCCTTCCCTGCTGTCCTCGCGCCTTTCTTCCTCAGTACATTAAGAGATTCTGATGTGCCTGCAGCA
B12: ID2816: enhancer fragment, SEQ ID NO: 31 (nucleic acid)
DNA: TTCCTGCATCTGGCCCTCTTTGAGAGCCCCTTGTGTGCCAATGACAAACCCTTCTTTATTTAAGCTCCTCTGAAGTGCCTTCCTGGTCTTGGCAGCTGGACAGGGCCCTGAATAAGACAGCGAGCCTCAATGGCAGGCTACCCCAGGGCTGGGTGACGTA

Tested on: GSC7 cells
Assay: Nano-Glo Dual-Luciferase Reporter (Nanoglo DLR) assay of enhancer activity, fold change to mCMV
Assay type: cell-based, human
Details: expression fold change of the individual enhancer compared to mCMV
Description: We chose an arrayed library format, with 160 bp enhancer fragments individually cloned into separate plasmids and arrayed in 96 well plates. These 160 bp were synthesized as a single pool of oligos, then randomly cloned into the plasmid and isolated. 20 bp×2 were needed for PCR amplification of the pool and so a library of 200 bp fragments was synthesized (Twist Biosciences). To meet our oligo synthesis strategy, ChIP-seq peaks expressed by GSCs were merged into a single oligo. This oligonucleotide pool was PCR-amplified (using limited cycles to reduce bias and ‘jackpot’ products meaning products which are easier to amplify will overtake the oligonucleotide pool) and cloned into the expression vector by an efficient Golden Gate reaction. 4579 individual plasmids were then randomly picked, isolated and plated as an arrayed plasmid DNA library on 96 well plates (×48). The bacterial colony picking and production of plasmid minipreps were supported by the Edinburgh Genome Foundry (S. Rosser). This library was then screened using the optimised Nanoglo DLR assay (Nano-Glo Dual-Luciferase Reporter Assay, Promega) in 384 well format. Each plate was transiently transfected together with PGK-FFLuc in a 1:10 ratio into GSC7 cells. 2 days later a Nanoglo DLR assay was performed and assayed on a plate reader.
Cells were seeded in 384 well plates using a multidrop and transfected the following day using the CyBio Felix. Two days later the experiment was terminated with a Nanoglo DLR assay and all hits with a fold change to mCMV greater than 10 were Sanger sequenced and mapped back to the genome.
Cells were seeded at the required density. The following day the transfection was carried out. For this the Plus reagent and Lipofectamine LTX (Life Technologies, 15338030) were each diluted in half the volume of Opti-MEM I Reduced-Serum Medium (further referred to as Optimem) (Life Technologies, 31985062). Following this step, the Plus reagent/Optimem premix was added to all DNA samples followed by the Lipofectamine LTX/Optimem premix. The transfection mix was incubated for 5 min at room temperature and then carefully dropped on the cells. Generally, no media change was carried out. Cells were analysed two days following transfection.
This assay consists of two steps. The transfection was carried out using a normalisation plasmid PGK-Firefly-Luciferase (Promega, E5011) that was transfected in a 1/10 ratio with the plasmid of interest. First, the Firefly Luciferase activity is measured which allows to normalise to transfection efficiency. In a second step, the activity of Nanoluc is determined which is the readout of the plasmid of interest. Cells were washed 3× with PBS and 20 μl was left in the 96 well plate after the final wash (25 μl in 384 well). Oneglo buffer was added and the plate was shaken for 5 min at 480 rpm to allow cell lysis. 20 μl cell lysate in 96 well format or 25 μl cell lysate in 384 well format was then transferred into the corresponding opaque white plate and luminescence was measured at for 0.1 s per well using the Ensight Multimode Plate Reader. For the following Nanoluc reaction in a 96 well format 2 μl cell lysate was transferred into an opaque white plate containing 40 μl PBS, and 20 μl Stopglo buffer, supplemented with substrate, was added to each well. In a 384 well format 20 μl Stopglo buffer containing substrate were added on top of the undiluted cell lysate. The plate was shaken again for 5 min at 480 rpm to quench the firefly luciferase reaction and ensure good mixing. Nanoluc activity was measured for 0.1 s per well, again using Ensight Multimode Plate Reader.
Data obtained by the Nanoluc reaction was normalised to Firefly reaction to account for well-to-well variability of transfection efficiency. Normalised data were used to calculate the fold change to the empty vector control mCMV.

| Molecule | Fold change (Median) |
| --- | --- |
| B1 | 24.9 fold |
| B2 | 24.9 fold |
| B3 | 145.9 fold |
| B4 | 45.5 fold |
| B5 | 26.2 fold |
| B6 | 21.2 fold |
| B7 | 26.4 fold |
| B8 | 20.7 fold |
| B9 | 25.2 fold |
| B10 | 116.4 fold |
| B11 | 14.54 fold |
| B12 | 25.1 fold |
